Biological target: T1, GR (Rattus norvegicus, UniProt P06536)
T1 construct: expressed in transfected cells; host or cells: Cos-7
T1 sequence (P06536 1-795): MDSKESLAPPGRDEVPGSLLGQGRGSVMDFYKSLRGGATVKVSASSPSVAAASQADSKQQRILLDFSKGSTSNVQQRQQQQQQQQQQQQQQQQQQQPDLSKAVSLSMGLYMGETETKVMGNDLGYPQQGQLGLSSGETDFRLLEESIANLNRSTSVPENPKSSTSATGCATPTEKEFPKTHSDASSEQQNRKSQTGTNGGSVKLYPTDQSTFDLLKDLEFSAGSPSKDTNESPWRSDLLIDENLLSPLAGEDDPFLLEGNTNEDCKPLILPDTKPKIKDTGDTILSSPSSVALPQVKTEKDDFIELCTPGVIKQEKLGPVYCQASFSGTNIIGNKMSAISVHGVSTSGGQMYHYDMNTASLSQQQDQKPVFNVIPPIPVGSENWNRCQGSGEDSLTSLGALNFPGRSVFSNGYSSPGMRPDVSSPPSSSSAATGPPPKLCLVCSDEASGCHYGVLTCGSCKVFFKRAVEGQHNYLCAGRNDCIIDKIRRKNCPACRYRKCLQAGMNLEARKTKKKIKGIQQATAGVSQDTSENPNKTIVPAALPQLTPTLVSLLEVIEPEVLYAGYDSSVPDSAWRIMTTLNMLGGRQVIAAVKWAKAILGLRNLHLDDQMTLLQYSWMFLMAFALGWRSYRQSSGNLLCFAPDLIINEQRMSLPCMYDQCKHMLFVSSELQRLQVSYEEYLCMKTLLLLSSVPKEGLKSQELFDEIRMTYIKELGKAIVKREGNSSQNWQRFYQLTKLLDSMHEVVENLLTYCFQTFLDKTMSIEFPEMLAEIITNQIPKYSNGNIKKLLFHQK
T1 sequence (Q6EMB2 5-1281 A149V/F1267S partner limits assumed): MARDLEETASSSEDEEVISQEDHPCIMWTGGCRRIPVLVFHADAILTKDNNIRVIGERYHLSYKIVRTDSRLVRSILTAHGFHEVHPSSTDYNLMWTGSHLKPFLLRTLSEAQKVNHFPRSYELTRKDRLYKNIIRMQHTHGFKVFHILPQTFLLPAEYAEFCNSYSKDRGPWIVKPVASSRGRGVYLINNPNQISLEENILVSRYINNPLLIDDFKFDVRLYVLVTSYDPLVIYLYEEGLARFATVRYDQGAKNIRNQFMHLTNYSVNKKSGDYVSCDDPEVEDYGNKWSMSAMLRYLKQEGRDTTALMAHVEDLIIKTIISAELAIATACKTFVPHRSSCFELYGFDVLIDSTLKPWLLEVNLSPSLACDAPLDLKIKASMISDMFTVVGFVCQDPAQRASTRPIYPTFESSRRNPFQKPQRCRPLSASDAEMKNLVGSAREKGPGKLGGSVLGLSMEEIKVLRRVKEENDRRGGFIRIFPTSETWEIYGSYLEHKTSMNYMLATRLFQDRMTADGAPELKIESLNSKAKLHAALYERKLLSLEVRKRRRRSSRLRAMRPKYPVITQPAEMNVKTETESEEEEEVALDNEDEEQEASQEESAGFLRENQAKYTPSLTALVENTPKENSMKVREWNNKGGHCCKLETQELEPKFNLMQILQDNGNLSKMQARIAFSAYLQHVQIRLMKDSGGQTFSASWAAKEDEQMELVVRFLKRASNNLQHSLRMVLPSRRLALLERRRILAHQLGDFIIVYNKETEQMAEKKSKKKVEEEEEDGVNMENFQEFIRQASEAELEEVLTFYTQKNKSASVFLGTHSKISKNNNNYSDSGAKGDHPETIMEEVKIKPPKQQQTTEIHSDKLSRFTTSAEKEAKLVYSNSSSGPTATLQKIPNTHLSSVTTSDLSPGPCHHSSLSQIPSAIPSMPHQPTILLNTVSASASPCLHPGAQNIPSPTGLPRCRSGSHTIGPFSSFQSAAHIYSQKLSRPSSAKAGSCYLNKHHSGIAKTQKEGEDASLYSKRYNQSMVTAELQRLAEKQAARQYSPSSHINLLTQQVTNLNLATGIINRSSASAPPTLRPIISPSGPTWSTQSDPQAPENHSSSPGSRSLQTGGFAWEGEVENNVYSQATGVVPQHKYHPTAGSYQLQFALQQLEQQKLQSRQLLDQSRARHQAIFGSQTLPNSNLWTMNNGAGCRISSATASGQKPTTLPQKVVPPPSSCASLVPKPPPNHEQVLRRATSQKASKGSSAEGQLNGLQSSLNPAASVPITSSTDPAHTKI
Assay: Whole cell co-immunoprecipitation in Cos-7 cells: GR
Type: binding
Details: EtOH ± 1 μM Dex, 2 hr
Experimental: FIG. 7C1-3 illustrate whole cell co-immunoprecipitation of STAMP, GR, and TIF2/GRIP1. Cos-7 cells that had been co-transfected with Flag/STAMP (or Flag itself), HA/GRIP1, and GR plasmids (10 μg of each/150 mm dish) for 48 hr were treated for 2 hr with EtOH±1 μM Dex before being lysed as described in Example 1. Lysate was either analyzed on SDS-PAGE gels or treated with anti-Flag antibody to immunoprecipitate Flag/STAMP. The pellets were separated on SDS-PAGE gels and Western blotted with anti-Flag (FIG. 7C1), anti-HA (FIG. 7C2), or anti-GR antibodies (FIG. 7C3). In each panel, lane 1=5.7% of input lysate, lane 2=IP pellet of Flag/STAMP, HA/GRIP1, and GR+EtOH, lane 3=IP pellet of Flag/STAMP, HA/GRIP1, and GR+Dex, and lane 4=control IP pellet of Flag, HA/GRIP1, and GR+EtOH. Similar results were obtained in a second experiment.
Immunoprecipitations were conducted as generally described in Wang et al. (2004) Mol. Endocrinol. 18: 1476-95, with slight modifications. The day before transfection, Cos-7 cells were seeded into 150 mm dishes at 200,000 cells per dish containing 20 ml of media. On the next day, about 30 μg of DNA/dish was transfected with 60 μl of FuGene reagent. […]

B1: STAMP: SRC-1 and TIF2 Associated Modulatory Protein, 1277 amino acid human polypeptide, expressed from transfected plasmid (protein)
chain: T1 sequence (Q6EMB2 5-1281 A149V/F1267S partner limits assumed)
  co-immunoprecipitation of GR with Flag-STAMP by anti-Flag antibody: co-immunoprecipitated

Reference: US7867500B2, “Cofactor that modulates steroid receptor activities” (The United States of America as represented by the …, priority 2004, dated 2011)
